# Experimental data as given in US20250296996A1, “ANGIOPOIETIN-RELATED PROTEIN 7-SPECIFIC ANTIBODIES AND USES THEREOF” (Broadwing Bio, Inc., priority 2022, published 2025).
# Entries after “also recorded” stand apart in the source; their conditions may differ.
# B1: ANGPTL7: human ANGPTL7 protein (angiopoietin-related protein 7), made by Biortus, used as treatment at 50 ng/mL (protein)
# chain: QKLSKHKTPAQPQLKAANCCEEVKELKAQVANLSSLLSELNKKQERDWVSVVMQVMELESNSKRMESRLTDAESKYSEMNNQIDIMQLQAAQTVTQTSADAIYDCSSLYQKNYRISGVYKLPPDDFLGSPELEVFCDMETSGGGWTIIQRRKSGLVSFYRDWKQYKQGFGSIRGDFWLGNEHIHRLSRQPTRLRVEMEDWEGNLRYAEYSHFVLGNELNSYRLFLGNYTGNVGNDALQYHNNTAFSTKDKDNDNCLDKCAQLRKGGYWYNCCTDSNLNGVYYRLGEHNKHLDGITWYGWHGSTYSLKRVEMKIRPEDFKP
# Tested on: 3D human trabecular meshwork (HTM) cells co-cultured with human Schlemms' canal (HSC) cells
# Test: Outflow facility in bioengineered 3D HTM/HSC ex vivo human eye tissue model, ANGPTL7 or dexamethasone
# Assay type: cell-based
# Settings: 3D-HTM donors; 500 nM Dexamethasone or 50 ng/mL ANGPTL7 vs vehicle (DMSO)
# Method: Experiments were conducted to determine the effects of ANGPTL7 on outflow facility in a bioengineered ex vivo human eye tissue model. Glauconix developed a proprietary technology allowing multi-layer growth of bioengineered 3D human trabecular meshwork (HTM) cells co-cultured with human Schlemms' canal (HSC) cells, thereby mimicking the architecture of the tissues responsible for pressure build-up in the human eye (FIG. 3A). This allows endpoint analyses relevant to IOP-modulation. This scaffolding of cells is used to compare treatment effects of vehicle (DMSO), dexamethasone (a steroid known to elevate IOP), and human ANGPTL7 protein on outflow facility.
# Briefly, HTM cells were thawed and allowed to grow for about 7 days (media changes every 2 days). The HTM cells were seeded onto scaffolds and HSC cells were thawed on the same day; the HTM cells were allowed to grow for 7 days on the scaffolds with media changes every 2 days. HSCs were co-cultured on the back side of the HTM scaffolds and grown for 10-12 days with media changes every 2 days. […]
# Samples were analyzed using One-way ANOVA (GraphPad Prism Software, Inc., La Jolla, CA), *P<0.05, **P<0.0.01, ***P<0.001 N=4 per treatment group. […] […]
molecule,measurement,value
B1,outflow facility,reduced outflow facility; also recorded: significantly decreased outflow facility
